Measurements taken from publication doi:10.1101/695700.

Biological target: complement C3
Experiment: SPR

Kd: 360 nM
B1: recombinant HC1 (rHC1), wild type; heavy chain 1 of inter-α-inhibitor (natural protein)
chain: SKSSEKRQAVDTAVDGVFIRSLKVNCKVTSRFAHYVVTSQVVNTANEAREVAFDLEIPKTAFISDFAVTADGNAFIGDIKDKVTAWKQYRKAAISGENAGLVRASGRTMEQFTIHLTVNPQSKVTFQLTYEEVLKRNHMQYEIVIKVKPKQLVHHFEIDVDIFEPQGISKLDAQASFLPKELAAQTIKKSFSGKKGHVLFRPTVSQQQSCPTCSTSLLNGHFKVTYDVSRDKICDLLVANNHFAHFFAPQNLTNMNKNVVFVIDISGSMRGQKVKQTKEALLKILGDMQPGDYFDLVLFGTRVQSWKGSLVQASEANLQAAQDFVRGFSLDEATNLNGGLLRGIEILNQVQESLPELSNHASILIMLTDGDPTEGVTDRSQILKNVRNAIRGRFPLYNLGFGHNVDFNFLEVMSMENNGRAQRIYEDHDATQQLQGFYSQVAKPLLVDVDLQYPQDAVLALTQNHHKQYYEGSEIVVAGRIADNKQSSFKADVQAHGEGQEFSITCLVDEEEMKKLLRERGHMLENHVERLWAYLTIQELLAKRMKVDREERANLSSQALQMSLDYGFVTPLTSMSIRGMADQDGLKPTIDKPSEDSPPLEMLGPRRTFVLSALQPSPTHSSSNTQRLPDRVTGVDTD
